We go through one molecule from publication doi:10.1101/2020.12.31.424868 (bioRxiv, 2020).

The assay addresses head domain of VN/04 HA (A/Vietnam/1203/2004 H5N1), monomeric (Influenza A virus A/Vietnam/1203/2004 …, strain). Put plainly: crystal structure.

B1: H5.31 Fab (recombinant) (Fab, V domains shown)
VH: EVQLVQSGGGLVQPGGSLRLSCEASRFTSSSYWITWVRQAPGKGLEWVANIKQDGSEKYFVDSVKGRFTISRDNASNSLYLQMSSLRAEDTAVYYCARGFLERLLLGRQGAYYYGMDVWGQGTTVTVSS
VL: DIVMTQSPFSLSASVGDRVTMTCRASQSISSSLNWYQQKPGKAPKLLIYAASNLQSGVPSRFSGSGSGTDFTLTISSLQPEDFATYYCQQSYTMPPELTFGGGTKVEIK
B1: the binding result is “binds”.
